{"source": "paper doi:10.1101/2020.07.01.182063", "assay_in_all_cases": "fluorescence polarisation", "key": {"[1]": {"molecular_target": "HIM-3 closure motif peptide with the S282A substitution (C. elegans)"}, "[2]": {"molecular_target": "HIM-3 closure motif peptide phosphorylated at Tyr279 (C. elegans)"}, "[3]": {"molecular_target": "HIM-3 closure motif peptide, unmodified (wild type) (C. elegans)"}}, "data": [{"substance": "HTP-2 protein (full length) (natural protein)", "values": [{"measurement": "Kd", "setting": "[1]", "result": 11.3, "unit": "µM"}, {"measurement": "Kd", "setting": "[2]", "result": 16.1, "unit": "µM"}, {"measurement": "Kd", "setting": "[3]", "result": 5.8, "unit": "µM"}]}]}
